Data taken from patent US20240165153A1.

How the values were obtained:
CD19 = CD19 (UniProt P15391); assay: cell-based or functional assay
CD20 = CD20 (UniProt P11836); assay: cell-based or functional assay
Sequence of UniProt P11836 (P11836 whole entry): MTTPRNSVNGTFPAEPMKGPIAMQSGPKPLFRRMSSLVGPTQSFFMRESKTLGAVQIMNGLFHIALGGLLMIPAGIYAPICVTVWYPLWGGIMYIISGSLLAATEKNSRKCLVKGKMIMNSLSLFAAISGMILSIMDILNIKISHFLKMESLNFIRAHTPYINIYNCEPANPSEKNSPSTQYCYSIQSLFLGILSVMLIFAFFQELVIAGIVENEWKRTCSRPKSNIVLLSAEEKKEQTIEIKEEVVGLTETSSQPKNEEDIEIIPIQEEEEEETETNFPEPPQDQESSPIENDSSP

Sequence of UniProt P15391 (P15391 20-556 limits assumed): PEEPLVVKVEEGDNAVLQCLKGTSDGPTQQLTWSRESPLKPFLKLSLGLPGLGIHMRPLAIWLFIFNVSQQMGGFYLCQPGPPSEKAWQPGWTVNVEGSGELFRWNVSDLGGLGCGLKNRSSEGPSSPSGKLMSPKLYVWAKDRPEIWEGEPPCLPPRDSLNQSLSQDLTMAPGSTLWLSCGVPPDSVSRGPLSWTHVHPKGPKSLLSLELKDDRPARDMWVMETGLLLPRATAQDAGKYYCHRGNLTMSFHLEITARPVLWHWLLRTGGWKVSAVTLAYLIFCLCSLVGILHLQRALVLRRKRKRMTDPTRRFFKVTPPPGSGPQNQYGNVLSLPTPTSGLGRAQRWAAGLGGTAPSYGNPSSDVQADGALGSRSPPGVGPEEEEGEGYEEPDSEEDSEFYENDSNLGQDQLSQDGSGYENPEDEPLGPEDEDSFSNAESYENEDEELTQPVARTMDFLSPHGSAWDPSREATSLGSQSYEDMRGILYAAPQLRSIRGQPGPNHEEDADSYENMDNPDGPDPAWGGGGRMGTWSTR

- CFSE median fluorescence intensity (lower = more proliferation), FIG. 9B, CD4+ T cells with Hu1928-Hu20BB long 10-21-2020, 4 days with CD19-K562 (NGFR-K562 control 28478) (relative fluorescence units) (CD19): 1410
- CFSE median fluorescence intensity (lower = more proliferation), FIG. 10B, CD8+ T cells with Hu1928-Hu20BB long 10-21-2020, 4 days with CD19-K562 (NGFR-K562 control 24978) (relative fluorescence units) (CD19): 1770
- IFNγ ELISA of supernatant; T cells transduced with Hu1928-Hu20BB long 10-21-2020, overnight with CD19-K562 (CD19): 8210 pg/mL
- IFNγ release; T cells transduced with Hu1928-Hu20BB long 10-21-2020, with CD19-K562 (CD19): 37500
- IFNγ release; T cells transduced with monospecific 10-5-2020 Hu19-CD828Z, with CD19-K562 (untransduced T cells: 217.2) (CD19): 22000
- IFNγ release; T cells transduced with monospecific 10-5-2020 Hu19-CD828Z, with ST486, which expresses CD19 (weakly) and CD20 (untransduced T cells: 1674.8) (CD19): 2070
- IFNγ release; T cells transduced with monospecific 10-5-2020 Hu19-CD828Z, with Toledo, which expresses CD19 and CD20 (untransduced T cells: 542.3) (CD19): 3200
- IL-2 ELISA of supernatant; T cells transduced with Hu1928-Hu20BB long 10-21-2020, overnight with CD19-K562 (CD19): 496 pg/mL
- IFNγ release; T cells transduced with monospecific 10-5-2020 Hu19-CD828Z, with CD19-negative CD20-K562 (untransduced T cells: 201.3) (CD20): 291
- IFNγ release; T cells transduced with monospecific 10-5-2020 Hu19-CD828Z, with ST486 CD19-negative (untransduced T cells: 1464.3) (CD20): 1360
- IFNγ release; T cells transduced with monospecific 10-5-2020 Hu19-CD828Z, with Toledo CD19-negative (untransduced T cells: 372.7) (CD20): 702
Substance: 10-5-2020 Hu19-CD828Z (anti-CD19 chimeric antigen receptor)
